Experimental data: publication PMC3351185 (Nucleic Acids Research, 2011)

Target: T1, ϕ29 DNA polymerase (wild-type) (bacteriophage ϕ29, UniProt P03680 1-575)
T1 sequence: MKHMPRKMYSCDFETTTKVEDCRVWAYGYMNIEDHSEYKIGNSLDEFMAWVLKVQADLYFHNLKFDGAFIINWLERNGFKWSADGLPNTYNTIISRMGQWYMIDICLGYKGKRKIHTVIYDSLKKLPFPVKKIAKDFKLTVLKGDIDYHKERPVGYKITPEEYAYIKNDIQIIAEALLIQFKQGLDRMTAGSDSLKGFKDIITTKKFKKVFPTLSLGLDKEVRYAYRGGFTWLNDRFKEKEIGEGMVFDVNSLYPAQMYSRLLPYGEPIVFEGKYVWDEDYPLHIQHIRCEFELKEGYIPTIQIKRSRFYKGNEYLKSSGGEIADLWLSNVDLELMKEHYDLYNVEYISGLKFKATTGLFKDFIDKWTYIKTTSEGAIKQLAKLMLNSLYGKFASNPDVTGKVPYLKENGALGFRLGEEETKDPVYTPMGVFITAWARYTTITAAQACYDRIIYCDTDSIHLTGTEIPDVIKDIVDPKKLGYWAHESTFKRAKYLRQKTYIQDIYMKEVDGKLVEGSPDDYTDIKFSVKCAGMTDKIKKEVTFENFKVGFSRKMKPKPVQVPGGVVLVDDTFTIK
Test: cell-based or functional assay

B1: ϕ29 terminal protein mutant R158A (natural protein, bacteriophage ϕ29, UniProt P03681 1-266, looked up)
chain: MARSPRIRIKDNDKAEYARLVKNTKAKIARTKKKYGVDLTAEIDIPDLDSFETRAQFNKWKEQASSFTNRANMRYQFEKNAYGVVASKAKIAEIERNTKEVQRLVDEKIKAMKDKEYYAGGKPQGTIEQRIAMTSPAHVTGINRPHDFDFSKVRSYSALRTLEESMEMRTDPQYYEKKMIQLQLNFIKSVEGSFNSFDAADELIEELKKIPPDDFYELFLRISEISFEEFDSEGNTVENVEGNVYKILSYLEQYRRGDFDLSLKGF
In the case of B1, the “TP-DNA amplification (%), activity with respect to the wild-type TP” value is reported as 1 % of wild-type TP and the “TP-DNA replication, activity with respect to the wild-type TP” value is reported as 17 % of wild-type TP.
